For this assay, the target named is Angiotensin-I Converting Enzyme (ACE) (Homo sapiens, UniProt P12821). Description: Determination of ACE inhibitory activity of hydrolysates in a microtiter plate (Hip-His-Leu substrate). Format: biochemical. The conditions noted are these: no digestion simulation, in %. As for the experimental part:
ACE inhibitory activity can be measured in vitro using a spectrophotometry based assay. The assay is based on the liberation of hippuric acid from Hip-His-Leu substrate catalyzed by ACE.
Calculation of Ace Inhibition:
[formula] 2.4 Further (Optimized) Hydrolysis of Ovomucin with Alcalase Protocol for the DH Determination by TNBS Method Solutions: • 0.21 M Sodium phosphate buffer pH8.2 • 0.21 M NaH2PO4.H2O (25 ml solution) • 0.21 M Na2HPO4.2H2O (500 ml solution) • mix solutions to pH 8.2 • 0.05% TNBS • Dilute TNBS stock (5% solution) to 0.05% in MQ cover reagent tube with aluminium foil and store in dark place • 1% SDS solution • Leucine standard (stock 3 mM Leucine) • Dissolve Leucine in 1% SDS solution. Dilute the stock solution 20×, 10×, 4× en 2× with 1% SDS for analysis • Blank • Dilute non-hydrolysed sample in 1% SDS to a protein concentration of 0.5 mg/ml • Samples • Dilute hydrolysed protein in 1% SDS to a concentration of 0.5 mg/ml in duplo Analysis: • Pipet 15 μl sample (Leucine standard or sample) in microwell. Measure each dilution in twofold in plate (Costar, non-binding plate) • Add 45 μl 0.21 M sodium phosphate buffer pH 8.2 • Add 45 μl 0.05% TNBS. Cover plate with aluminium foil. Incubate plate for 60 minutes in a 50° C. stove. • After incubation add 90 μl 0.1 N HCl • Measure absorption at 340 nm (microplate reader) Calculation of degree of hydrolysis (DH): • Make calibration line of Leucine standard. This calibration line is used to convert absorption values of samples to NH2-equivalents.

Chain of Angiotensin-I Converting Enzyme (ACE) (P12821 30-1306, species assumed): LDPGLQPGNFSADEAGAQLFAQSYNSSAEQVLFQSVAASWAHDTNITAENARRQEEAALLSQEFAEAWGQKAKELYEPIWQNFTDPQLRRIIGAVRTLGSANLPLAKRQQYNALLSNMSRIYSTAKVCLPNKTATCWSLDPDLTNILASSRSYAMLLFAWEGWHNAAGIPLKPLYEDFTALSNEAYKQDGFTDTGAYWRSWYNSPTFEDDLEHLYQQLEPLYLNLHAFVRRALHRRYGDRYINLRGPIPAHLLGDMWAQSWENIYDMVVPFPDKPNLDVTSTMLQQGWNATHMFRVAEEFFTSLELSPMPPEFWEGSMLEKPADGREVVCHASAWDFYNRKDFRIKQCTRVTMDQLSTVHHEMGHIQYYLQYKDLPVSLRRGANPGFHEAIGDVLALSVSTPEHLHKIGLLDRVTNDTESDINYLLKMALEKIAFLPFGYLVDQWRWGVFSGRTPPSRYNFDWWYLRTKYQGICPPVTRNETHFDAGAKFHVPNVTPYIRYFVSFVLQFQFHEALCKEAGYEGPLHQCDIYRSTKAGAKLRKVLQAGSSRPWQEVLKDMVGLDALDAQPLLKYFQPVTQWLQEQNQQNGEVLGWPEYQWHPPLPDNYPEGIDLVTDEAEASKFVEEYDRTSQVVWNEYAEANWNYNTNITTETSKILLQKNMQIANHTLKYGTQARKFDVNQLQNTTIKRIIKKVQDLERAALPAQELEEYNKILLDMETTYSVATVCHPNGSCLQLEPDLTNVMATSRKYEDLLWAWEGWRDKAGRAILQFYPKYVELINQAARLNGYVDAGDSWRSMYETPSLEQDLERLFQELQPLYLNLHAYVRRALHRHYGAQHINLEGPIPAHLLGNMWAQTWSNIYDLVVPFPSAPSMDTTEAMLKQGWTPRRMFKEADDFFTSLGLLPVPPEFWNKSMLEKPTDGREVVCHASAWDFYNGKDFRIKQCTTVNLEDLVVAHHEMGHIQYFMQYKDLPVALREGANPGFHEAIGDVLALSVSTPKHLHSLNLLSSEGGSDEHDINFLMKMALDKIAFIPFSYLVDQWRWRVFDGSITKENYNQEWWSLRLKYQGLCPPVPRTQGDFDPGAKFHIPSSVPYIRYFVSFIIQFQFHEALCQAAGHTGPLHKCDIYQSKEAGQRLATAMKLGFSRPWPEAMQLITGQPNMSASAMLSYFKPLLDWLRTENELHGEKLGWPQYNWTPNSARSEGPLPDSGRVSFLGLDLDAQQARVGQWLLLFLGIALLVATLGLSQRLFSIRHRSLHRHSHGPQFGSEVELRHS

B1: OT-UM: ovotransferrin, not pre-hydrolysed, nor in vitro digested (protein)
chain: APPKSVIRWCTISSPEEKKCNNLRDLTQQERISLTCVQKATYLDCIKAIANNEADAISLDGGQAFEAGLAPYKLKPIAAEVYEHTEGSTTSYYAVAVVKKGTEFTVNDLQGKTSCHTGLGRSAGWNIPIGTLLHRGAIEWEGIESGSVEQAVAKFFSASCVPGATIEQKLCRQCKGDPKTKCARNAPYSGYSGAFHCLKDGKGDVAFVKHTTVNENAPDQKDEYELLCLDGSRQPVDNYKTCNWARVAAHAVVARDDNKVEDIWSFLSKAQSDFGVDTKSDFHLFGPPGKKDPVLKDLLFKDSAIMLKRVPSLMDSQLYLGFEYYSAIQSMRKDQLTPSPRENRIQWCAVGKDEKSKCDRWSVVSNGDVECTVVDETKDCIIKIMKGEADAVALDGGLVYTAGVCGLVPVMAERYDDESQCSKTDERPASYFAVAVARKDSNVNWNNLKGKKSCHTAVGRTAGWVIPMGLIHNRTGTCNFDEYFSEGCAPGSPPNSRLCQLCQGSGGIPPEKCVASSHEKYFGYTGALRCLVEKGDVAFIQHSTVEENTGGKNKADWAKNLQMDDFELLCTDGRRANVMDYRECNLAEVPTHAVVVRPEKANKIRDLLERQEKRFGVNGSEKSKFMMFESQNKDLLFKDLTKCLFKVREGTTYKEFLGDKFYTVISSLKTCNPSDILQMCSFLEGK
In the case of B1, the ACE inhibition is, setting by setting: (conc. 0.019 mg/ml) 0.7; (conc. 0.056 mg/ml) −4.1; (conc. 0.167 mg/ml) 0.7; (conc. 0.500 mg/ml) −0.3.
